± gives the standard deviation of the averaged measurements.
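Further: ATP exposure 15 min at 22 °C before imaging.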

In this series the test system is ATP. Kind of series: switch fluorescence ratio, 500 uM ATP over buffer (Cy3 cluster intensity, sum of 5 cycles each) (fold (ratio)); higher = stronger signal-on switching upon ATP binding; sequences stand for … in TCGTCGGCAGCGTCAGATGTGTATAAGAGACAGTTTTTTTTTTTTTTTTTTTTTTTTT…TC. The conditions noted are these: aptamer strand: ATP DNA aptamer (quencher-CACCTGGGGGAGTATTGCGGAGGAAGG + anchor), 100 nM annealed; ATP concentration: 500 uM. The essentials:
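Switching-strand clusters labelled with Cy3 on a modified Illumina MiSeq flow-cell were annealed to 100 nM quencher-labelled ATP aptamer, imaged in selection buffer, and re-imaged after 15 min with 500 uM ATP at 22 °C. This was done over five cycles with NaOH stripping and re-annealing in between. The fluorescence ratio is summed target-cycle over summed buffer-cycle Cy3 intensity per cluster, averaged per switch-domain sequence, excluding clusters outside 100-1000 RFU.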
Take TGGGGGCGGA: the switch fluorescence ratio is 1.01 ± 0.032.
Next, TGCGTTGCGG: 0.978 ± 0.029; GAGTAAGAGG: 0.989 ± 0.059.
Next, TCTATTTTTT: 1.01 ± 0.014; TCTAGGGGTG: 1.03 ± 0.025.
Turning to ATGTGTTAGC, the switch fluorescence ratio amounted to 0.999 ± 0.058.
As for AGGGTAGCTT, the switch fluorescence ratio was found to be 0.999 ± 0.031.
Next, GTCTAACTGT: 0.994 ± 0.029; TGCTTTGGTT: 1.01 ± 0.055; TTGAGGTTGA: 0.994 ± 0.029.
The value for CGAAGTCGTC was 1.02 ± 0.021; that for TCGGGGGTG was 1.01 ± 0.085.
The value for CGAAAATCTT was 0.9949 ± 0.0095.
Consider ACCGGGGTGG, for which the switch fluorescence ratio was 0.991 ± 0.05.
Next, ACTTGTAGGC: 1.01 ± 0.05.
Next, GGGATGACGG: 0.975 ± 0.036; GTCAAAAATT: 0.987 ± 0.01; TTAAATAATA: 1.09 ± 0.16.
Next, TGAGGATGTT: 0.9852 ± 0.0089; TGCTCCTTGC: 1.08 ± 0.062; ATGACCGATT: 1.02 ± 0.049.
As to ATTCGATAGT, the switch fluorescence ratio was determined as 1.03 ± 0.018.
Take GATTACTACC: the switch fluorescence ratio was 1.21 ± 0.04.
Turning to ACATGCCGGG, the switch fluorescence ratio came out at 1.03 ± 0.085.
Next, TACCTTCGTT: 1.04 ± 0.073; TGTGTTGTCA: 1.01 ± 0.011; AACGGCGCTA: 1.045 ± 0.0057.
The value for ACGTAGGGGG was 0.988 ± 0.032.
The value for CAGTTCGGCC was 1.01 ± 0.024; that for AAGGTGGGGA was 1.02 ± 0.034.
GCTGTCTATC: the switch fluorescence ratio was determined as 1.01 ± 0.027.
With TATACTATTG, the switch fluorescence ratio was determined as 1.01 ± 0.048.
Next, AAGTCTGCCA: 1.47 ± 0.66; ATTGGGTATG: 0.998 ± 0.044.
Next, TCGAGGGGAA: 1.13 ± 0.15; TAAGAGTTC: 0.99 ± 0.034; GGGTACGGTA: 1.05 ± 0.029.
Next, GTAATAAGGT: 1.02 ± 0.023.
TTGTTCAGTT: the switch fluorescence ratio was found to be 1.02 ± 0.036.
Next, AATATTGAAG: 1 ± 0.018; GACGTACTCA: 1.51 ± 0.17; CGACGAATAG: 1.29 ± 0.063.
Next, AAATGTAAGG: 0.99 ± 0.034; CCCCGACTTT: 1.07 ± 0.018; ACTAGGTTAT: 1.16 ± 0.15.
In the case of GGTTTAGTGA, the switch fluorescence ratio came to 0.998 ± 0.034.
Turning to GGGAATATTA, the switch fluorescence ratio was determined as 1.04 ± 0.023.
Next, ATCGCCAGGC: 1.014 ± 0.0044.
AGGTGCAATT: the switch fluorescence ratio came out at 1.47 ± 0.54.
The value for CCATTAAGTC was 1.02 ± 0.045; that for CCTTTGGAGG was 0.981 ± 0.016; that for GGTAGGGGCG was 1.03 ± 0.031.
Next, CGTTTAACTC: 1.05 ± 0.055; TATTACGAGT: 1.02 ± 0.013.
The value for TACTTAGTGG was 1.02 ± 0.017; that for GGATGCTGAT was 1 ± 0.047.
Take GGTTTCATAG: the switch fluorescence ratio was 0.976 ± 0.013.
TTTGCCTT: the switch fluorescence ratio stood at 1.06 ± 0.051.
Next, GGGCAGAAAT: 1.01 ± 0.048; GACTAGTTAT: 0.993 ± 0.019; TGTGGGATTG: 0.993 ± 0.015.
Next, TTGGGGGAAG: 0.981 ± 0.026.
Next, ACTGAGGCCT: 1.05 ± 0.045.
On to TAGACCTCCC, for which the switch fluorescence ratio came to 1.81 ± 0.16.
Consider TCACGGTGTG, for which the switch fluorescence ratio came out at 0.983 ± 0.02.
Next, CTCTTTACGG: 1 ± 0.04.
Next, TCGTTATGT: 0.97732 ± 9.1e-05.

These data come from the supplement of paper PMC10126150.
